Three substances from patent US20030211466 can be followed below.

For the data set, the system named is HuB (Hel-N2, ELAV-like), Q12926-2. Conditions: increase in HuB RNP on differentiation.

Where two headings read alike, the source gives them in different places.

HuB (Hel-N2, ELAV-like), Q12926-2, sequence (Q12926 other isoform, or with tags, fused parts or gaps): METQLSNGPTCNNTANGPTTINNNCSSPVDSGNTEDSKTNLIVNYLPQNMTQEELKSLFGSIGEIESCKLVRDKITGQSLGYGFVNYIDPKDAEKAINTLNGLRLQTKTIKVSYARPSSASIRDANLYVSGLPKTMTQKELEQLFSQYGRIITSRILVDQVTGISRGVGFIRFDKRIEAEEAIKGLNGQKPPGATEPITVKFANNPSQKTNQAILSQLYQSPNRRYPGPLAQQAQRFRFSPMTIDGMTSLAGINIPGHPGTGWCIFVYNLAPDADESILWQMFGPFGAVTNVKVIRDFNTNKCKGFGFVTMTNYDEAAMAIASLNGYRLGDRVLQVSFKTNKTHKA

In turn, CACN (calcium channel beta 3) mRNA had a binding signal (total RNA +1.31) of 14.5 fold.
In turn, CELSR mRNA registered a binding signal (total RNA -1.33) of 9.41 fold.
With MBNL mRNA, the binding signal (total RNA +1.42) turned out to be 8.95 fold.
